Measured values reported in the RNAGym collection of RNA variant scans (doi:10.7554/elife.80360).

B1: Twister Ribozyme (parent)
chain: AACACUGCCAAUGCCGGUCCCAAGCCCGGAUAAAAGUGGAGGGGGCGG

Variants of: B1
Test: self-cleavage, relative activity (ratio to wild type); higher = more cleavage; co-transcriptional

Variant	self-cleavage
A34C C46U	0.251
A34C C46G	0.154
A34G G42C	0.185
A34G G42A	0.133
A35U G45A	1.02
A33U C46G	0.921
A33U C46U	0.917
A33U C46A	0.851
G39C G42A	0.148
A35U G36C	0.592
A35U G36A	0.593
A33U G45C	0.554
A34U G47A	0.601
A34U G47C	0.247
A34U G47U	0.502
G38C G48U	1.06
G38A G42U	0.133
G39C	0.158
G39A	0.568
U37G C46A	0.619
G39A G47C	0.137
G39A G47U	0.238
A35U G39A	0.316
A35U G39U	0.134

Variant	self-cleavage
G36C G39C	0.113
G36C G39A	0.122
G36C G39U	0.128
A33U G48A	0.889
A33U G48C	1.08
A35C G48U	0.978
A35C G48A	0.917
A35C G48C	1.08
U37A G45U	0.617
U37A G45A	0.835
A34U G45U	0.59
G36A G43A	0.14
G36A G43U	0.147
A34G G47A	0.477
U37C G43C	0.102
U37C G43U	0.106
U37C G43A	0.142
G36C G38U	0.116
A35G G43U	0.13
A35G G43C	0.16
A34G G41A	0.141
A34G G41U	0.131
G38A G43U	0.195
G36C G47U	0.376

Variant	self-cleavage
G36C G47C	0.171
A34U G44C	0.766
A34U G44A	0.893
A35G G39A	0.374
A35G G39U	0.18
G36U G38C	0.286
A34G A40G	0.111
A34G A40U	0.122
G38A A40C	0.129
G38C A40U	0.129
A33G C46G	0.855
A35U G48A	1.02
G38U G48C	1.05
G38C G44C	0.853
G38C G44U	1.02
G38C G44A	0.826
A34C G42A	0.143
A34C G42U	0.113
A34C G42C	0.184
G36U	0.479
G36C	0.691
G36A	0.843
U37A G39C	0.121
A34U G48C	0.855

Variant	self-cleavage
U37A G47U	0.702
U37A G47C	0.292
U37C G39A	0.219
U37C G39C	0.0703
A35G G41A	0.246
U37C G45U	0.515
A34U G39U	0.139
A34U G39A	0.199
G36U G41U	0.0887
G36U G41A	0.124
G36U G41C	0.114
G38C G39U	0.164
G38C G39C	0.127
A34U A35U	0.841
A34U A35C	0.892
G36A G41U	0.131
G36C A40G	0.0963
G36C A40C	0.15
A35C G44C	0.943
G39C G41U	0.122
A35G G48U	0.882
A35G G48C	1.04
A35G G48A	0.913
G39A G44A	0.339

Variant	self-cleavage
A33G G41U	0.381
A33G G41A	0.453
G36C G48A	0.422
G36C G48C	0.657
U37G G43C	0.0693
A34C A40G	0.145
U37A C46A	0.844
G38A G39A	0.4
G38A G39U	0.142
G38A G39C	0.175
U37G G47U	0.724
G38U G39U	0.0892
A35U G38C	0.973
G38C C46A	0.791
G38C C46G	0.801
G36U A40G	0.125
G36A A40C	0.115
A35U G41A	0.678
A34U G43A	0.209
A33G A35U	0.789
A33G A35G	0.865
A33U G44A	0.907
A33U G44C	0.928
A35C G47U	0.932

Variant	self-cleavage
A35C G47A	0.832
A33G G36U	0.256
A33G G36A	0.509
A33C G48A	0.867
A33C G48C	1.1
G36C C46U	0.585
A35U A40C	0.195
A34G G45C	0.274
A34C G48U	0.21
A34C G48C	0.2
U37G G44C	0.669
U37G G44A	0.703
A33G G43U	0.238
U37G G45A	0.544
U37G G45C	0.268
U37G G45U	0.47
G38A G48C	1.04
G38A G48A	0.998
U37G G48C	0.843
U37G G48A	0.844
A33U A34C	0.637
A33U A34U	0.847
U37C C46U	0.627
A35C U37G	0.703

Variant	self-cleavage
G38C G45A	0.736
G36A C46A	0.582
A34G C46U	0.834
A34G C46A	0.736
A34C U37G	0.249
A34C U37A	0.169
A34C U37C	0.116
A33G G39A	0.362
A33G G39C	0.118
A33G G39U	0.222
A35G U37C	0.056
A35G U37G	0.585
G36C G44U	0.512
G36C G44C	0.402
U37C G48C	0.843
U37C G48U	0.881
A35G C46A	0.747
A34C G43A	0.13
A34C G43U	0.14
A34C G43C	0.103
A35U G47A	0.899
A35U G47U	0.893
U37G G39A	0.126
A35C C46A	0.98

Variant	self-cleavage
A35C C46U	0.879
A35C C46G	0.828
A33G A40U	0.184
A34C G45A	0.144
A34C G45C	0.0937
A34C G45U	0.167
A33C U37C	0.354
A33C U37G	0.626
A33U U37G	0.591
A33U U37A	0.688
G36U G45A	0.4
G38A C46U	0.877
G36A G45U	0.579
G36A G45A	0.714
A34G G36U	0.105
A34G G36A	0.164
A35U U37A	0.834
A33G G38C	0.878
A33G G38A	0.709
G36C G41C	0.141
G36C G41A	0.134
G36C G41U	0.0915
G39C C46A	0.13
G39C C46G	0.126

Variant	self-cleavage
A34G G44U	0.722
A34G G44C	0.783
G39A C46G	0.537
G38A G45U	0.737
G38A G45C	0.65
A33G U37G	0.601
G36A U37A	0.166
G36A U37G	0.32
U37G G38U	0.127
U37G G38A	0.774
A33C G44C	0.852
A34G G48U	0.876
G36U U37C	0.283
G36U U37A	0.177
G38C G42A	0.229
A33C G45U	0.71
A33C G45C	0.531
A33C G45A	0.795
G39A G43U	0.134
G38U G44U	0.915
A33U A40U	0.157
A33U A40C	0.234
U37A A40C	0.127
U37A A40G	0.165

Variant	self-cleavage
U37A A40U	0.137
A33U A35G	0.8
A33U A35U	0.926
A33U A35C	0.961
G36U G47C	0.198
G36U G47U	0.412
G36U G47A	0.272
A35G G45C	0.373
G38A G44C	0.932
A34G G38U	0.677
G39A G45U	0.231
G39A G45C	0.234
U37A G48U	0.811
A35C G43U	0.456
U37A G43A	0.145
U37A G43C	0.149
A35C G45U	0.855
A35C G45A	0.807
G36U G43U	0.15
U37G A40C	0.163
U37G A40U	0.128
A34G	0.874
A34C	0.378
A34U	0.915

Variant	self-cleavage
A35G A40G	0.118
A35G A40U	0.107
G36A G48A	0.639
A33U G43U	0.421
G38U G45C	0.407
G38U G45A	0.827
G38U G45U	0.707
G36C G45A	0.37
A35C G41A	0.611
A33G G45C	0.545
G39A G48C	0.532
A35G G44U	0.831
A33U G36A	0.282
A33U G36U	0.132
G36A G47C	0.234
A34G G39U	0.102
A34G G39C	0.109
A35C G36U	0.477
A35C G36A	0.491
A33U G47A	0.739
A33U G47U	0.81
A34C G47U	0.107
A34C G47A	0.122
A35G G36C	0.491

Variant	self-cleavage
A35G G36U	0.765
A35G G36A	0.718
A33C G47U	0.865
A33C G47A	0.782
G36A G42A	0.141
A34U C46G	0.839
A34U C46U	0.84
U37C G38U	0.516
U37C G38C	0.742
G36A G39A	0.195
G36A G39C	0.115
A34G A35G	0.526
A34G A35U	0.92
A34C G38A	0.232
A34C G38C	0.157
A34C G39U	0.11
G38U G47U	0.813
G38U G47C	0.228
A35G G42C	0.141
A35G G42A	0.115
A35G G42U	0.133
U37G	0.861
U37A	0.883
U37C	0.738

Variant	self-cleavage
A34C A35U	0.811
A34C A35G	0.212
G38A G47A	0.882
G39A G42A	0.146
G39A G42U	0.164
G36U G48A	0.43
G36U G48C	0.514
A34U U37G	0.372
A33G G47C	0.394
U37C G47A	0.478
U37C G47U	0.585
G39A G41C	0.126
A35G G38U	0.667
A35G G38A	0.199
G36C G43C	0.0794
G36C G42U	0.145
A34U G38U	0.506
G38U C46A	0.794
G36U G42U	0.103
A34U G36A	0.157
A35C G39A	0.221
A35C G39C	0.153
A35G G47C	0.562
A35G G47U	0.81

Variant	self-cleavage
G38A G41A	0.28
G36A G38C	0.327
A35C G38U	0.881
A35C G38A	0.9
A35C A40C	0.154
A34U G41C	0.176
A34U G41A	0.163
A34U G41U	0.185
A35U G44C	0.974
A35U G44U	0.92
A35C G42A	0.32
A35C G42U	0.415
A33G G44A	0.79
A35U G42U	0.374
A34G U37A	0.444
A34C G41U	0.112
A34C G41C	0.111
A33G G42A	0.215
A33U G38U	0.815
U37C G41A	0.134
U37C G41U	0.126
U37C G41C	0.087
